According to patent publication US20170253660A1:

Key:
[1] = target: human CD16 Fc receptor on NK92-MI cells (human) (UniProt P08637); experiment: cell-based or functional assay; conditions: for LAN1-CD16 Potency: scale: relative to m3F8
[2] = target: human CD32 Fc receptor on NK92-MI cells (human); experiment: cell-based or functional assay; conditions: for LAN1-CD32 Potency: scale: relative to m3F8

Chain of human CD16 Fc receptor on NK92-MI cells (human) (P08637 17-254): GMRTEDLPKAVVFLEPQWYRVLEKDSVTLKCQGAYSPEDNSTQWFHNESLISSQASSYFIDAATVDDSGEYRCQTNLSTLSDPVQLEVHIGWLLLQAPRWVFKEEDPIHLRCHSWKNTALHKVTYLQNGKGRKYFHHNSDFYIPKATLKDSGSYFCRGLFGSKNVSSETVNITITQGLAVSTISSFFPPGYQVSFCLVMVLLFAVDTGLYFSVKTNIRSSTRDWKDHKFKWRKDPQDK

| Substance | Antibody potency using NK92-CD16 ADCC, BE(1)N (relative potency (m3F8 = 1)) [1] | Antibody potency using NK92-CD16 ADCC, LAN1 (relative potency (m3F8 = 1)) [1] | Antibody potency using NK92-CD16 ADCC, NMB7 (relative potency (m3F8 = 1)) [1] | Antibody potency using NK92-CD16 ADCC, SHEP1 (relative potency (m3F8 = 1)) [1] | Antibody potency using NK92-CD16 ADCC, SKNLP (relative potency (m3F8 = 1)) [1] | M14-CD16 Potency (relative to m3F8) [1] | LAN1-CD16 Potency [1] | M14-CD32 Potency (relative to m3F8) [2] | LAN1-CD32 Potency [2] |
| --- | --- | --- | --- | --- | --- | --- | --- | --- | --- |
| 14.G2a (antibody) | 1 | 0.4 | 1 | 1 | 1 | 1 | 4 | 6 | 2 |
| ch14.18 (antibody) | – | 4 | – | 3 | 8 | 9 | – | 21 | 8 |
| heat modified m3F8 (antibody) | – | 0.2 | – | – | – | – | – | – | – |
| murine 3F8 (antibody) | 1 | 1 | 1 | 1 | 1 | 1 | 1 | 1 | 1 |
